# Results reported in patent publication US20250127783.
# Target: HA-Cdh1 (UniProt Q9UM11)
# Sequence (Q9UM11 whole entry): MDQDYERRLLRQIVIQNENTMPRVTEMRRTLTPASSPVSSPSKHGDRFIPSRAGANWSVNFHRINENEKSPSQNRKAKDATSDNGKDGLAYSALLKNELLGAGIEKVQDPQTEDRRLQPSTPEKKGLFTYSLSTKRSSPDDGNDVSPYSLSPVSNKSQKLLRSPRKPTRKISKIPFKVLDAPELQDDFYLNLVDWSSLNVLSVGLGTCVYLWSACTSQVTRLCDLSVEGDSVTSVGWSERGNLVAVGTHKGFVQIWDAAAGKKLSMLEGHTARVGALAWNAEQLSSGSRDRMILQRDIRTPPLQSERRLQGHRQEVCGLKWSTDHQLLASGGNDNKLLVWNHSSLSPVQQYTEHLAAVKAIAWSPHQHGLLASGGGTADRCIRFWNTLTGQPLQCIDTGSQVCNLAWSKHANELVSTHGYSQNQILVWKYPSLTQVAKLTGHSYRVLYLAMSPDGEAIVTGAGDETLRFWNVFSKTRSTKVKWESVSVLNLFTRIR
substance,measurement,value
recombinant human cyclin D1+CDK4 proteins (Abcam ab55695),in vitro kinase assay (thiophosphate ester immunoblot),CDK4 specifically phosphorylates Cdh1 at S163
